In this experiment the target is mouse CD8 (mouse) (UniProt P01731). Kind of experiment: cell ELISA on dried mouse thymocytes containing CD8+ cells, detection with biotinylated MO3. (An ELISA detects its analyte on a solid surface through an enzyme-linked reagent.)

On to “native trypanosome-derived lymphocyte triggering factor (TLTF), antibody affinity purified (ligand)”, for which the dilution of TLTF down to which a signal above background was obtained was 0.001 dilution.

For the origin of these results see patent publication US5891439.
